# According to patent publication US20250263462A1 (published 2025):
# T1: KRAS G12V peptide on HLA-A*11:01 (human)
# T1 peptide: VVVGAVGVGK
# T2: KRAS G12D peptide on HLA-A*11:01 (human)
# T2 peptide: VVVGADGVGK
# T3: KRAS wild type peptide on HLA-A*11:01 (human)
# T3 peptide: VVVGAGGVGK
# T4: KRAS G12D peptide on HLA-A*11:01 (human)
# T4 peptide: VVGADGVGK
# T5: KRAS wild type peptide on HLA-A*11:01 (human)
# T5 peptide: VVGAGGVGK
# T6: KRAS G12D peptide on HLA-A*11:01 (human)
# T6 peptide: VVVGADGVG
# T7: KRAS G12V peptide on HLA-A*11:01 (human)
# T7 peptide: VVGAVGVGK
# Experiments:
# Assay in all cases: cytokine release
# [1] = target: T1, KRAS G12V peptide on HLA-A*11:01
# [2] = target: T2, KRAS G12D peptide on HLA-A*11:01
# [3] = target: T3, KRAS wild type peptide on HLA-A*11:01
# [4] = target: T4, KRAS G12D peptide on HLA-A*11:01
# [5] = target: T5, KRAS wild type peptide on HLA-A*11:01
# [6] = target: T6, KRAS G12D peptide on HLA-A*11:01
# [7] = target: T7, KRAS G12V peptide on HLA-A*11:01
binding result [1],binding result [2],binding result [3],binding result [4],binding result [5],binding result [6],binding result [7],Binder
no recognition,no recognition,no recognition,–,–,–,–,TRAV12N-3*01 + TRBV5*01 (TCR) Valpha: GDSVTQTEGLVTLTEGLPVMLNCTYQTIYSNPFLFWYVQHLNESPRLLLKSFTDNKRTEHQGFHATLHKSSSSFHLQKSSAQLSDSALYYCALRGNAGAKLTFGGGTRLTVRP beta TRBV5*01 2*01/2-1*01 CDR3: CASSQDSLGRAEQFF
no recognition,recognises,no recognition,no recognition,no recognition,no recognition,–,"TRAV12N-3*01/BV4*01 murine anti-KRAS G12D TCR (SEQ ID NOs: 11 and 12) (TCR, V domains shown) Valpha: GDSVTQTEGLVTLTEGLPVMLNCTYQTIYSNPFLFWYVQHLNESPRLLLKSFTDNKRTEHQGFHATLHKSSSSFHLQKSSAQLSDSALYYCALRGNAGAKLTFGGGTRLTVRP Vbeta: ETAVFQTPNYHVTQVGNEVSFNCKQTLGHDTMYWYKQDSKKLLKIMFSYNNKQLIVNETVPRRFSPQSSDKAHLNLRIKSVEPEDSAVYLCASSSRDWSAETLYFGSGTRLTVL"
recognises,no recognition,no recognition,no recognition,–,–,–,"TRAV3-3*01/TRBV4*01 murine anti-KRAS G12V TCR (SEQ ID NOs: 133 and 134) (TCR, V domains shown) Valpha: GEQVEQRPPHLSVREGDSAVITCTYTDPNSYYFFWYKQEPGASLQLLMKVFSSTEINEGQGFTVLLNKKDKRLSLNLTAAHPGDSAAYFCAVSGGTNSAGNKLTFGIGTRVLVRP Vbeta: ETAVFQTPNYHVTQVGNEVSFNCKQTLGHDTMYWYKQDSKKLLKIMFSYNNKQLIVNETVPRRFSPQSSDKAHLNLRIKSVEPEDSAVYLCASSRDWGPAEQFFGPGTRLTVL"
no recognition,–,no recognition,–,–,–,–,TRAV16D/DV11*03 + TRBV4*01 (TCR) alpha TRAV16D/DV11*03 52*01 CDR3: CAMREDTGANTGKLTF Vbeta: ETAVFQTPNYHVTQVGNEVSFNCKQTLGHDTMYWYKQDSKKLLKIMFSYNNKQLIVNETVPRRFSPQSSDKAHLNLRIKSVEPEDSAVYLCASSSRDWSAETLYFGSGTRLTVL
recognises,no recognition,no recognition,no recognition,–,–,no recognition,"TRAV19*01/TRBV13-1*02 murine anti-KRAS G12V TCR (SEQ ID NOs: 145 and 146) (TCR, V domains shown) Valpha: GQQVKQSSPSLTVQEGGILILNCDYENDMFDYFAWYKKYPDNSPTLLISVRSNVDKREDGRFTVFLNKSGKHFSLHITASQPEDTAVYLCAAGDSGGSNYKLTFGKGTLLTVTP Vbeta: EAAVTQSPRNKVTVTGGNVTLSCRQTNSHNYMYWYRQDTGHGLRLIHYSYGAGNLQIGDVPDGYKATRTTQEDFFLLLELASPSQTSLYFCASASWGGYAEQFFGPGTRLTVL"
no recognition,no recognition,no recognition,–,–,–,–,"TRAV3-3*01 + TRBV13-1*02 (TCR, V domains shown) Valpha: GEQVEQRPPHLSVREGDSAVITCTYTDPNSYYFFWYKQEPGASLQLLMKVFSSTEINEGQGFTVLLNKKDKRLSLNLTAAHPGDSAAYFCAVSGGTNSAGNKLTFGIGTRVLVRP Vbeta: EAAVTQSPRNKVTVTGGNVTLSCRQTNSHNYMYWYRQDTGHGLRLIHYSYGAGNLQIGDVPDGYKATRTTQEDFFLLLELASPSQTSLYFCASASWGGYAEQFFGPGTRLTVL"
no recognition,no recognition,no recognition,–,–,–,–,"TRAV19*01 + TRBV4*01 (TCR, V domains shown) Valpha: GQQVKQSSPSLTVQEGGILILNCDYENDMFDYFAWYKKYPDNSPTLLISVRSNVDKREDGRFTVFLNKSGKHFSLHITASQPEDTAVYLCAAGDSGGSNYKLTFGKGTLLTVTP Vbeta: ETAVFQTPNYHVTQVGNEVSFNCKQTLGHDTMYWYKQDSKKLLKIMFSYNNKQLIVNETVPRRFSPQSSDKAHLNLRIKSVEPEDSAVYLCASSRDWGPAEQFFGPGTRLTVL"
no recognition,–,no recognition,no recognition,no recognition,–,–,"TRAV4-4/DV10*01/BV12-2*01 murine anti-KRAS G12D TCR (SEQ ID NOs: 157 and 158) (TCR, V domains shown) Valpha: GDQVEQSPSALSLHEGTDSALRCNFTTTMRSVQWFRQNSRGSLISLFYLASGTKENGRLKSAFDSKERRYSTLHIRDAQLEDSGTYFCAADSSNTGYQNFYFGKGTSLTVIP Vbeta: NSGVVQSPRYIIKGKGERSILKCIPISGHLSVAWYQQTQGQELKFFIQHYDKMERDKGNLPSRFSVQQFDDYHSEMNMSALELEDSAVYFCASSLTDPLDSDYTFGSGTRLLVI"
–,recognises,–,–,–,–,–,"Substituted TRAV4-4/DV10*01/BV12-2*01 (CDR3alpha G112A) (SEQ ID NOs: 209 and 158) (TCR, V domains shown) Valpha: GDQVEQSPSALSLHEGTDSALRCNFTTTMRSVQWFRQNSRGSLISLFYLASGTKENGRLKSAFDSKERRYSTLHIRDAQLEDSGTYFCAADSSNTAYQNFYFGKGTSLTVIP Vbeta: NSGVVQSPRYIIKGKGERSILKCIPISGHLSVAWYQQTQGQELKFFIQHYDKMERDKGNLPSRFSVQQFDDYHSEMNMSALELEDSAVYFCASSLTDPLDSDYTFGSGTRLLVI"
no recognition,–,no recognition,–,–,–,–,TRAV16D/DV11*03 + TRBV5*01 (TCR) alpha TRAV16D/DV11*03 52*01 CDR3: CAMREDTGANTGKLTF beta TRBV5*01 2*01/2-1*01 CDR3: CASSQDSLGRAEQFF
